Results taken from IntAct's records for PubMed 25203555.

B1: Uncharacterized protein C1322.02 (Schizosaccharomyces pombe (strain ATCC 38366 / 972)), O94542 (parent)
chain: MIESKGETAPSLNLNDVNVEENDAAQSFAEKVQRFRYQMKVHAAPRQKTLHSFLKKDNANIHDFTKVEKPHIRSSKSKVSYNSITSRVTKYFEEKNNSVDQLHSESLTPLSFGHTIPKKKPLLMTASVSEDSRVRVSKRQFKSKVVHPEIAISIAKRHKPKFPLSDELMNVEPGFHHSNIGCQITPYLWISSFRTNVYYLIGNEGDLLSQQVPSISGELNMLRGVCTRIDDDNRYDIEQAGSCFGMSVFPTSDSGEESFTTLESDPIVNCEHDEKKVADNLLVPQVMCSSNISTFFRSPGGKKLYHYLWKNSNALRISSNDLLEILLKHGVYVSLDTLHSWLQERNVNFEK
partner: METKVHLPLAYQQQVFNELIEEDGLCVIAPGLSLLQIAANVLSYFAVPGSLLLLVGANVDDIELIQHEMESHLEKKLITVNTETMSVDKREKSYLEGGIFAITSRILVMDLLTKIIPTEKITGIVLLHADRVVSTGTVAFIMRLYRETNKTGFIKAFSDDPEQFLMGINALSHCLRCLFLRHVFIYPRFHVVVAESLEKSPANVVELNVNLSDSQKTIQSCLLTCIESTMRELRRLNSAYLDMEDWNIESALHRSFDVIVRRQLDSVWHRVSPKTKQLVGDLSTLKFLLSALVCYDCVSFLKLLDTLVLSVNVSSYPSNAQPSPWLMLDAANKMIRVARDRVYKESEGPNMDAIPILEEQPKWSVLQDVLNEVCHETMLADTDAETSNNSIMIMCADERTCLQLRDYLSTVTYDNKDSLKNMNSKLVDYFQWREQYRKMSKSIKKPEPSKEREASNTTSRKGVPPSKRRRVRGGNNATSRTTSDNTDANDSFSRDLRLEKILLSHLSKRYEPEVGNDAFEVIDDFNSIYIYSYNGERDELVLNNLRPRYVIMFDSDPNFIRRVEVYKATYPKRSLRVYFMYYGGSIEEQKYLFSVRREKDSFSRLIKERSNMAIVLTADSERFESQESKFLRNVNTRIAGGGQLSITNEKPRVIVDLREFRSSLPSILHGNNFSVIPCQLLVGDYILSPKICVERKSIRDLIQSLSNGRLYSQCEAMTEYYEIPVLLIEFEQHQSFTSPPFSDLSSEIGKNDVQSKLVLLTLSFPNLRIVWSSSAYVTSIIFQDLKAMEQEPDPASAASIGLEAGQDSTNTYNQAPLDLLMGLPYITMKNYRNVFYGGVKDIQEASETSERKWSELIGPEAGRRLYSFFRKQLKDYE
B2: Uncharacterized protein C1322.02 (Schizosaccharomyces pombe (strain ATCC 38366 / 972)), O94542 (parent)
chain: B1 chain
partner: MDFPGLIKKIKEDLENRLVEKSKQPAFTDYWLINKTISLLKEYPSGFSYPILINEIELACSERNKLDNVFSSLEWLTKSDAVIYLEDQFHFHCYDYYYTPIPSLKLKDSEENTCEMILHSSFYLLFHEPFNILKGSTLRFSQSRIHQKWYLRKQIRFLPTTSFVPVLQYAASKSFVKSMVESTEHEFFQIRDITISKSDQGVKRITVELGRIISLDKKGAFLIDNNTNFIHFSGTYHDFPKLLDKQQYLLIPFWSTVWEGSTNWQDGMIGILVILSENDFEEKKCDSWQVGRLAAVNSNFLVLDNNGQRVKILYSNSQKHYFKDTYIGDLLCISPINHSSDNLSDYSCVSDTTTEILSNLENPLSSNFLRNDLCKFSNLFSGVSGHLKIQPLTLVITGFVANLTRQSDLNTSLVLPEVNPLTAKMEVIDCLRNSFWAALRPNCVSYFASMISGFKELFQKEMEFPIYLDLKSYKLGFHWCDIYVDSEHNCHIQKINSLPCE

Variants of: B1
Details: with rad16_schpo rad16, P36617
With MIESKGETAPSLNLNDVNVEENDAAQSFAEKVQRFRYQMKVHAAPRQKTLHSFLKKDNANIHDFTKVEKPHIRSSKSKVSYNSITSRVTKYFEEKNNSVDQLHSESLTPLSFGHTIPKKKPLLMTASVSEDSRVRVSKRQFKSKVVHPEIAISIDKRHKPKFPLSDELMNVAPGFHHSNIGCQITPYLWISSFRTNVYYLIGNEGDLLSQQVPSISGELNMLRGVCTRIDDDNRYDIEQAGSCFGMSVFPTSDSGEESFTTLESDPIVNCEHDEKKVADNLLVPQVMCSSNISTFFRSPGGKKLYHYLWKNSNALRISSNDLLEILLKHGVYVSLDTLHSWLQERNVNFEK [A155D;E172A] the “effect of a mutation on the interaction” value was “disrupting interaction strength”.

Variants of: B2
Details: with cdc24_schpo cdc24, O75004
In the case of MIESKGETAPSLNLNDVNVEENDAAQSFAEKVQRFRYQMKVHAAPRQKTLHSFLKKDNANIHDFTKVEKPHIRSSKSKVSYNSITSRVTKYFEEKNNSVDQLHSESLTPLSFGHTIPKKKPLLMTASVSEDSRVRVSKRQFKSKVVHPEIAISIAKRHKPKFPLSDELMNVEPGFHHSNIGCQITPYLWISSFRTNVYYLIGNEGDLLSQQVPSISGELNMLRGVCTRIDDDNRYDIEQAGSCFGMSVFPTSDSGEESFTTLESDPIVNCEHDEKKVADNLLVPQVMCAANASTAARSPGGKKLYHYLWKNSNALRISSNDLLEILLKHGVYVSLDTLHSWLQERNVNFEK [S289A;S290A;I292A;F295A;F296A], the “effect of a mutation on the interaction” value is reported as “decreasing interaction strength”.
